Values of other authors, collected in paper PMC13341169.
Read-outs that look alike come from different tables or passages of the source.

Experiments:
[1] = biological target: PKA C-subunit (Homo sapiens) (UniProt P17612)
[2] = biological target: PKA C-subunit (Homo sapiens) (UniProt P17612); remark: listed apart in the source

Substance	Kd [1] [nM]	Kd [2] [nM]
PKIγ (from UniProt Q9Y2B9)	0.4	–
PKIβ (from UniProt Q9C010)	–	7.1
